B1: Vacuole morphology and inheritance protein 14 (Saccharomyces cerevisiae), Q06708 (parent)
chain: MEKSIAKGLSDKLYEKRKAAALELEKLVKQCVLEGDYDRIDKIIDELCRDYAYALHQPMARNAGLMGLAATAIALGINDVGRYLRNILPPVLACFGDQNDQVRFYACESLYNIAKIAKGEILVYFNEIFDVLCKISADTENSVRGAAELLDRLIKDIVAERASNYISIVNNGSHGLLPAIKTDPISGDVYQEEYEQDNQLAFSLPKFIPLLTERIYAINPDTRVFLVDWLKVLLNTPGLELISYLPSFLGGLFTFLGDSHKDVRTVTHTLMDSLLHEVDRISKLQTEIKMKRLERLKMLEDKYNNSSTPTKKADGALIAEKKKTLMTALGGLSKPLSMETDDTKLSNTNETDDERHLTSQEQLLDSEATSQEPLRDGEEYIPGQDINLNFPEVITVLVNNLASSEAEIQLIALHWIQVILSISPNVFIPFLSKILSVLLKLLSDSDPHITEIAQLVNGQLLSLCSSYVGKETDGKIAYGPIVNSLTLQFFDSRIDAKIACLDWLILIYHKAPNQILKHNDSMFLTLLKSLSNRDSVLIEKALSLLQSLCSDSNDNYLRQFLQDLLTLFKRDTKLVKTRANFIMRQISSRLSPERVYKVISSILDNYNDTTFVKMMIQILSTNLITSPEMSSLRNKLRTCEDGMFFNSLFKSWCPNPVSVISLCFVAENYELAYTVLQTYANYELKLNDLVQLDILIQLFESPVFTRMRLQLLEQQKHPFLHKCLFGILMIIPQSKAFETLNRRLNSLNIWTSQSYVMNNYIRQRENSNFCDSNSDISQRSVSQSKLHFQELINHFKAVSEEDEYSSDMIRLDHGANNKSLLLGSFLDGIDEDKQEIVTPISPMNEAINEEMESPNDNSSVILKDSGSLPFNRNVSDKLKK
B2: Protein VAC14 homolog (Homo sapiens), Q08AM6 (parent)
chain: MNPEKDFAPLTPNIVRALNDKLYEKRKVAALEIEKLVREFVAQNNTVQIKHVIQTLSQEFALSQHPHSRKGGLIGLAACSIALGKDSGLYLKELIEPVLTCFNDADSRLRYYACEALYNIVKVARGAVLPHFNVLFDGLSKLAADPDPNVKSGSELLDRLLKDIVTESNKFDLVSFIPLLRERIYSNNQYARQFIISWILVLESVPDINLLDYLPEILDGLFQILGDNGKEIRKMCEVVLGEFLKEIKKNPSSVKFAEMANILVIHCQTTDDLIQLTAMCWMREFIQLAGRVMLPYSSGILTAVLPCLAYDDRKKSIKEVANVCNQSLMKLVTPEDDELDELRPGQRQAEPTPDDALPKQEGTASGGPDGSCDSSFSSGISVFTAASTERAPVTLHLDGIVQVLNCHLSDTAIGMMTRIAVLKWLYHLYIKTPRKMFRHTDSLFPILLQTLSDESDEVILKDLEVLAEIASSPAGQTDDPGPLDGPDLQASHSELQVPTPGRAGLLNTSGTKGLECSPSTPTMNSYFYKFMINLLKRFSSERKLLEVRGPFIIRQLCLLLNAENIFHSMADILLREEDLKFASTMVHALNTILLTSTELFQLRNQLKDLKTLESQNLFCCLYRSWCHNPVTTVSLCFLTQNYRHAYDLIQKFGDLEVTVDFLAEVDKLVQLIECPIFTYLRLQLLDVKNNPYLIKALYGLLMLLPQSSAFQLLSHRLQCVPNPELLQTEDSLKAAPKSQKADSPSIDYAELLQHFEKVQNKHLEVRHQRSGRGDHLDRRVVL
B3: Protein VAC14 homolog (Homo sapiens), Q08AM6 (parent)
chain: B2 chain
partner: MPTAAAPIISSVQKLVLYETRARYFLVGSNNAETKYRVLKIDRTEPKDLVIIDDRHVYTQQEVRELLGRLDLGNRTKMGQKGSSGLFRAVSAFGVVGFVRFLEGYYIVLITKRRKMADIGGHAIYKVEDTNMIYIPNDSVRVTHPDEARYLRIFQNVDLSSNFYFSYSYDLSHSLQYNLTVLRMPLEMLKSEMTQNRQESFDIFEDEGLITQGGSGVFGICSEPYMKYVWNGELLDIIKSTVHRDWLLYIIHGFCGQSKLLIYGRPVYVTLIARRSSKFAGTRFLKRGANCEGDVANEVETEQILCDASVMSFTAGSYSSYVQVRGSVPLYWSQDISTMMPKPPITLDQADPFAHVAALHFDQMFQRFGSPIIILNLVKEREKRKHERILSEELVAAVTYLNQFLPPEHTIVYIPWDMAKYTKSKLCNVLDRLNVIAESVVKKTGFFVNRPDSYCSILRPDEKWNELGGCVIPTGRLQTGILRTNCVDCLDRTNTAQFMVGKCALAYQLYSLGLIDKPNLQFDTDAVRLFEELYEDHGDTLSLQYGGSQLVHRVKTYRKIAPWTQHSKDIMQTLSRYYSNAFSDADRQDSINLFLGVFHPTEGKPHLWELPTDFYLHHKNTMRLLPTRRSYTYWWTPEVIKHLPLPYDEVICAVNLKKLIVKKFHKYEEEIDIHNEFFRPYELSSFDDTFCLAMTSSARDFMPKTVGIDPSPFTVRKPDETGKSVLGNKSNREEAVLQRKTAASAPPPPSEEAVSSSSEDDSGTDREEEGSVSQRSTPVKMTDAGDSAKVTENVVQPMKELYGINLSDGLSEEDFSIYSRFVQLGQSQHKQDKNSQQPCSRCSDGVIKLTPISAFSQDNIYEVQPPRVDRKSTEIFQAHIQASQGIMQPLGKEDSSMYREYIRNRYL
B4: Vacuole morphology and inheritance protein 14 (Saccharomyces cerevisiae), Q06708 (parent)
chain: B1 chain
partner: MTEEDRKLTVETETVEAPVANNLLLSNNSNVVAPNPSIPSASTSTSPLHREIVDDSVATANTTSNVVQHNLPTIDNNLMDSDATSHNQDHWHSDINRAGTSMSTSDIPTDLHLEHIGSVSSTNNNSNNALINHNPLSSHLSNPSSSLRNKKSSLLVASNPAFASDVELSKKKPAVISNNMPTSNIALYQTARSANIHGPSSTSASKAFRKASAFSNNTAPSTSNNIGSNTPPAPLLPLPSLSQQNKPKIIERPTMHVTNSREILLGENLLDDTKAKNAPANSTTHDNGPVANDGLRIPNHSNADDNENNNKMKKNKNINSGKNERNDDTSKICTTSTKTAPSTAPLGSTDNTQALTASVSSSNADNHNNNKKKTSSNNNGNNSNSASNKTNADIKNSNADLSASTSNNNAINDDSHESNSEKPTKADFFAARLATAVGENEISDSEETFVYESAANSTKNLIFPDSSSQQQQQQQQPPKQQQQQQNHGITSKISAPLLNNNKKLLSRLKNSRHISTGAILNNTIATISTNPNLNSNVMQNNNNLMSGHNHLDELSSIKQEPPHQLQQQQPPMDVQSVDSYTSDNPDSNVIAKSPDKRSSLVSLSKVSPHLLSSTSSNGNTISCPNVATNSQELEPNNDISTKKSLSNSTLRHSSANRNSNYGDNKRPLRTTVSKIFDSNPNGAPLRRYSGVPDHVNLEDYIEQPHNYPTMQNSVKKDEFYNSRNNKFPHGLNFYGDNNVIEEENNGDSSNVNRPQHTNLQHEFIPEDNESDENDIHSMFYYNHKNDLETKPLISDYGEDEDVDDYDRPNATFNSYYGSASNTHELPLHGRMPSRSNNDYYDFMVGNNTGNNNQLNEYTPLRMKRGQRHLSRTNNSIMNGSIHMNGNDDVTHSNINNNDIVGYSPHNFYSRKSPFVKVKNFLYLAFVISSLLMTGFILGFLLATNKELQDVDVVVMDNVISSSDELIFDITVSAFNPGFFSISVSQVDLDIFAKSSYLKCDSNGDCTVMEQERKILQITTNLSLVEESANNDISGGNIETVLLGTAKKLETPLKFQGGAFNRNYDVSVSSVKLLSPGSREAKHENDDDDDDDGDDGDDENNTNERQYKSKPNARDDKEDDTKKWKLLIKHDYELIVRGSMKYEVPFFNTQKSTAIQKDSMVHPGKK
B5: Vacuole morphology and inheritance protein 14 (Saccharomyces cerevisiae), Q06708 (parent)
chain: B1 chain
partner: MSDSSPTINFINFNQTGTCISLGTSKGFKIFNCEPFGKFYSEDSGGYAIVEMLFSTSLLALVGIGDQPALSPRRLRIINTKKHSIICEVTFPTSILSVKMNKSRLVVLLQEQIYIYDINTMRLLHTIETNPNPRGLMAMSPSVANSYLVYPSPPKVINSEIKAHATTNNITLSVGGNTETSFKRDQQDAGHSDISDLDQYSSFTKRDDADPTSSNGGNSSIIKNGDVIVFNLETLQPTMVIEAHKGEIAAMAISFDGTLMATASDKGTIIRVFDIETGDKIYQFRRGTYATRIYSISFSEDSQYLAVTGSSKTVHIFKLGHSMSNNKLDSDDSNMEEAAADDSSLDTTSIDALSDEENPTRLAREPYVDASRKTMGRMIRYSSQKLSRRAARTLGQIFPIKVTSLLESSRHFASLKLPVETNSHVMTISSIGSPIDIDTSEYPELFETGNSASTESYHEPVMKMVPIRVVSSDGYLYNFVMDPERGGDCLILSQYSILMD

Variants of: B1
Details: with fab1_yeast FAB1, P34756
Chain of fab1_yeast FAB1, P34756 (P34756 whole entry): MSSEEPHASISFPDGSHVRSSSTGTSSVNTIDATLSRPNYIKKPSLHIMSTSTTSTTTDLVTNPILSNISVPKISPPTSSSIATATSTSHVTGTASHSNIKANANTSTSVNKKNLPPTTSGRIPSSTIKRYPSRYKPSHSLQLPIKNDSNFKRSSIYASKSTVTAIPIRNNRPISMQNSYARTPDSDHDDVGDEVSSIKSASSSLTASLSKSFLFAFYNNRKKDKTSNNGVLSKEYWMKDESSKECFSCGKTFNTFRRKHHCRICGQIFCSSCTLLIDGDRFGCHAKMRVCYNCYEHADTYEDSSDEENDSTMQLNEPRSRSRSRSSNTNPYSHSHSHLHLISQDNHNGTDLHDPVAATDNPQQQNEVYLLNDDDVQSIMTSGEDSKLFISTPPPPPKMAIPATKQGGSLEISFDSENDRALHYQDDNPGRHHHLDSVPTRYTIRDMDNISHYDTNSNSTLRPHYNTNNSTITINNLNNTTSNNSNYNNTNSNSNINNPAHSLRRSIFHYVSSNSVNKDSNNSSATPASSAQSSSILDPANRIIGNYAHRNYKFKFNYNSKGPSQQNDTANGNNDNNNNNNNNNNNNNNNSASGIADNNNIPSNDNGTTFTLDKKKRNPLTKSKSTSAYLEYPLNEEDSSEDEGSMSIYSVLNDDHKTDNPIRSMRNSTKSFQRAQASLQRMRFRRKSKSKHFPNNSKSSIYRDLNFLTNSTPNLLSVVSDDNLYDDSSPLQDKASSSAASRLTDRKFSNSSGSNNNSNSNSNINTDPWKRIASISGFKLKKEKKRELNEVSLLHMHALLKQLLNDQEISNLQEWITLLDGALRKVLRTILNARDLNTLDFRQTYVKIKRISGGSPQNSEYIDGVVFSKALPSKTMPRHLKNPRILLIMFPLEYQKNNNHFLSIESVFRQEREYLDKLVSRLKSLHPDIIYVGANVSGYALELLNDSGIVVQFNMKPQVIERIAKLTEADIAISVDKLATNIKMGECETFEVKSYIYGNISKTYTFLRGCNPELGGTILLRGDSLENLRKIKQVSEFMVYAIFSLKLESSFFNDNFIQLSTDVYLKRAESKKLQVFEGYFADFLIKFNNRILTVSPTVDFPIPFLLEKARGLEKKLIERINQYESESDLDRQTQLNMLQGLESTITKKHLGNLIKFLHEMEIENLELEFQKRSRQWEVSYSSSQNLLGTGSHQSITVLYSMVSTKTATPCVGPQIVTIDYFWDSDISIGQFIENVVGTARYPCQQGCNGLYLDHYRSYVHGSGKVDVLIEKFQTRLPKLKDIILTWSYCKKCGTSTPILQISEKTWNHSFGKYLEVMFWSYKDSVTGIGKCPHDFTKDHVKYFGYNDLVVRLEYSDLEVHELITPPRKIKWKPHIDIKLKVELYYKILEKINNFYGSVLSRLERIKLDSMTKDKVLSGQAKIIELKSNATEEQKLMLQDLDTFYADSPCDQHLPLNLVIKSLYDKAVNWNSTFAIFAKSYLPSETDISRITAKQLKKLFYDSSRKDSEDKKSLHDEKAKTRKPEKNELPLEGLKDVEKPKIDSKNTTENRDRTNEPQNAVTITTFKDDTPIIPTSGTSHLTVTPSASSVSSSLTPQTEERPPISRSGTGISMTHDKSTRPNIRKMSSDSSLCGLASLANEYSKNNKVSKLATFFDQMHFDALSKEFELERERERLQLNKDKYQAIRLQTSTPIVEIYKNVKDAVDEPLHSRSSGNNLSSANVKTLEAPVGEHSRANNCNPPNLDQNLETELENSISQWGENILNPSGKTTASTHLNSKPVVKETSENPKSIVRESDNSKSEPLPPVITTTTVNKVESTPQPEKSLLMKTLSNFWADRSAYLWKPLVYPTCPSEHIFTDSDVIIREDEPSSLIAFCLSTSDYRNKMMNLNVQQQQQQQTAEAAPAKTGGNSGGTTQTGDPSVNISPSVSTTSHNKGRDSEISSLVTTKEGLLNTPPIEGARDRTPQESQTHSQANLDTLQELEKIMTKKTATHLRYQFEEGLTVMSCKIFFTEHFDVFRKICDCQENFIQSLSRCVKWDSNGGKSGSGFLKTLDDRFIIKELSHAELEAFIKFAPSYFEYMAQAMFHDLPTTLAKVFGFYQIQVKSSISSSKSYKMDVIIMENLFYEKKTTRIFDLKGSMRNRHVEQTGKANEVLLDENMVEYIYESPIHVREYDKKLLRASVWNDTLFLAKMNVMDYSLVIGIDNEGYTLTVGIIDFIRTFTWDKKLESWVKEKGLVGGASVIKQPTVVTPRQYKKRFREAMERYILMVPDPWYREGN

Variant	effect of a mutation on the interaction
L149R	disrupting interaction

Variants of: B2
Details: with fyv1_human PIKFYVE

Variant	effect of a mutation on the interaction
L156R	disrupting interaction

Variants of: B3
Details: with fig4_human FIG4, Q92562

Variant	effect of a mutation on the interaction
L156R	disrupting interaction

Variants of: B4
Details: with vac7_yeast VAC7, P53950

Variant	effect of a mutation on the interaction
L149R	disrupting interaction

Variants of: B4
Details: with vac7_yeast VAC7, P53950
Remark: another data set of the same source

Variant	effect of a mutation on the interaction
R61K	disrupting interaction
H56Y	disrupting interaction
Q101R	disrupting interaction
L329I	disrupting interaction

Variants of: B5
Details: with atg18_yeast ATG18, P43601

Variant	effect of a mutation on the interaction
L149R	disrupting interaction

Variants of: B5
Details: with atg18_yeast ATG18, P43601
Remark: another data set of the same source

Variant	effect of a mutation on the interaction
H56Y	disrupting interaction
L329I	disrupting interaction
Q101R	disrupting interaction
R61K	disrupting interaction

Reference: IntAct's records for PubMed 19037259
